Measured values published in the supplement of paper PMC10567573.

B1: KLHL12 (parent)
chain: LDYTADEDGVWYSVAPMNVRRGLA
B2: SLC25A39 (parent)
chain: LTSDLYAPMVAGALARLGTVTVIS
B3: RIPK4 (parent)
chain: VSVNAQTLDGRTPLHLAAQRGHYR

Variants of: B1
Assay: protein stability index of a GFP-peptide fusion (GPS, HEK-293T) (PSI 1-6); higher = more stable
Conditions: c terminus: a fixed tail appended
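Note: lentivirally expressed fusions sorted by FACS into six bins by GFP to DsRed ratio, PSI derived from sequencing read proportions per bin multiplied by bin number.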

Protein stability index of substitutions, site by site:
A24: R 1.97; K 2.35; Y 2.39; N 2.25; L 2.77; T 2.11; P 2.24; Q 2.03; M 1.75; W 2.46; V 2.26; G 2.17; I 1.88; H 2.13; S 2.17; D 1.82; F 2.2; C 1.77; E 1.87
L23: W 1.37; Y 1.99

Variants of: B2
Assay: as above
Conditions: c terminus: a fixed tail appended

Protein stability index of substitutions, site by site:
A13: H 2.47; N 2.09; Q 2.61; S 1.38; P 1.16; T 1.75; K 3.56; D 1.74; C 2.73; M 3.17; R 1.79; V 2.79
Y6: M 2.09; D 1.55; F 3.72; R 1.47; Q 2.01; H 2.34; T 1.82; V 2.13; G 1.13; N 1.34; C 2.31; S 1.34; P 1.98; E 2; W 3.76; A 2.37
T2: Y 4.43; A 3.92; S 2.68; M 3.56; Q 2.49; W 1.61; K 1.57; C 4.26; D 2.1; H 2.88; G 3.56; N 2.52; E 2.15
L5: H 1.34; K 3.21; D 1.89; N 1.89; S 2.12; E 1.69; C 3.99; R 2.09; M 2.95; G 2.8; T 1.48; A 2.14; Y 3.05; P 2.31; Q 1.65; I 1
T21: F 3.5; D 3.1; M 2.7; R 2.12; W 3.97; H 2.26; V 2.03; Q 2.95; E 2.09; N 2.79
G18: A 2.61; H 4.48; D 2.53; T 3.39; R 2.66; W 3.57; P 2.57; K 2.53
L14: W 5.23; V 2.83; N 1.69; H 1.12; A 1.79; R 1.72; G 2.76; E 1.91; T 1.58; Q 1.53; S 1.69; C 3.43; P 2.24; F 3.32; D 1.83; Y 3.67; K 1
D4: C 4.74; P 2.89; Y 5.3; S 2.07; T 2.84; W 3.9; Q 2.88; R 3.25; V 3.22
V10: E 1.21; M 4.25; W 2.29; Q 1.96; D 1.9; H 2.45; R 1.49; S 2.6; T 3.25; Y 2.63; P 1.85; F 2.85; A 3.92; K 2.15; G 2.72; C 3.02; N 1.96
L17: F 2.95; D 2.47; T 1.52; S 2.51; V 2.22; N 1.96; C 1.56; W 4.43; I 3.23; P 1.69; E 2.71; Y 2.12; G 3.15; H 2.7; R 1.1; A 1.92; K 1.75
I23: S 1.95; D 2.3; Y 2.31; K 2.04; E 2.54; R 1.87; Q 2.56; P 1.8; L 2.75; N 1.98; G 2.18
G12: K 3.64; P 1.23; R 3.52; L 3.83; S 1.53; Q 4.46; Y 2.21; I 3.04; H 2.64; V 3.9
L1: D 1.76; A 3.53; S 1.41; N 2.77; M 2.2; Q 1.84; I 1.96; C 2.18; E 2.24; G 2.72; V 1.88; H 2.01; P 1.62; K 2.83; T 1.75
V22: N 1.11; P 1.61; T 2.04; A 2.58; K 1.74; S 2.31; Y 1.6; D 1.49; F 2.47; E 2.08; L 3.04; R 2.82; C 3.43
T19: G 1.91; H 1.94; K 2.21; D 1.76; Q 1.8; V 2.87
A11: Y 4.45; F 3.02; M 2.95; K 2.39; Q 1.65; H 2.69; P 3.19; L 2.5; D 1.65; T 2.81; N 2.3
R16: N 1.5; W 2.85; Q 3.11; P 1.98; F 4.13; E 1.76; L 2.76; A 2.1; Y 2.35; M 3.22; D 2.58; I 2.97; S 2.41
A7: N 1.97; L 3.74; S 2.38; I 4.33; R 3.29; Q 2.86; K 1.61; V 1.96; P 1.87; C 2.42; T 1.62; H 2.38; D 1.17
V20: G 1.99; S 2.26; T 1.02; Y 3.19; R 1.76; I 3.37; H 3.15; K 2.05; N 2.54; P 1.45; E 2.43; F 2.09; D 2.73; W 1.77
P8: M 3.46; T 3.06; S 3.97; C 2.52; E 3.86; A 1.5; L 2.02; D 3.54; I 1.62; W 2.68; N 1.7
M9: K 1.52; G 1.6; T 2.35; H 1.77; Y 3.86; I 2.76; N 1.01; Q 2.57; D 1.78; C 1.65; S 1.75; E 2.54; R 1.36; L 3.65; P 1.5; A 2.21
S24: N 1.91; R 2.26; C 3.08; H 3.6; W 3.06; I 1.56; P 2.21; K 1.61; T 4.15; G 3; D 3.34; Q 1.45; E 2.61
S3: H 2.4; I 2.51; N 1.56; R 2.83; T 1.38; M 2.73; F 3.67; D 2.96; A 2.75; Y 2.41; P 1.35; Q 1.86; L 3.13; V 3.21; K 1.13; G 3.59
A15: K 3.12; M 4.42; D 1.93; S 3.49; E 1.39; T 3.55; F 2.6; L 1.45; Q 3.66; G 2.69; R 2.1; P 1.97; N 1.87

Variants of: B3
Assay: as above
Conditions: c terminus: a fixed tail appended

Protein stability index: each site, then its substitutions
V1: D 4.66; C 2.54; A 3.94
